Reference: the supplement of paper PMC9112550, “Optimization of the antimicrobial peptide Bac7 by deep mutational scanning” (BMC Biology, 2022)

System: Escherichia coli TOP10
Assay: shrunken log2 fold change of peptide-encoding DNA abundance (4.5 h post-induction vs induction); higher = less antimicrobial activity (less host growth inhibition)
Details: time post-induction: 4.5 h; library: site-saturation at positions 5, 18, 19, 20
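Also: peptides expressed intracellularly from a pBAD plasmid library in pooled LB shake-flask culture, induced with 0.3% L-arabinose, DNA abundance read by NGS, three biological replicates, DESeq2 with apeglm shrinkage.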

Sequence | shrunken log2 fold change
RRIRLRPPRLPRPRPRPFMPPRP | -0.195
RRIRSRPPRLPRPRPRPFMHPRP | -0.321
RRIRRRPPRLPRPRPRPNCGPRP | 0.315
RRIRTRPPRLPRPRPRPGTQPRP | -0.036
RRIRGRPPRLPRPRPRPIGLPRP | 0.19
RRIRVRPPRLPRPRPRPQGCPRP | -0.0651
RRIRRRPPRLPRPRPRPRMSPRP | 0.938
RRIRPRPPRLPRPRPRPSNEPRP | -0.406
RRIRWRPPRLPRPRPRPQICPRP | -0.0447
RRIRCRPPRLPRPRPRPNLQPRP | -0.506
RRIRPRPPRLPRPRPRPFNCPRP | -0.537
RRIRKRPPRLPRPRPRPKPKPRP | 0.464
RRIRHRPPRLPRPRPRPFPWPRP | -0.0989
RRIRERPPRLPRPRPRPRTTPRP | 0.00749
RRIRPRPPRLPRPRPRPAANPRP | 0.17
RRIRARPPRLPRPRPRPCRYPRP | -0.215
RRIRSRPPRLPRPRPRPIWWPRP | 0.361
RRIRMRPPRLPRPRPRPQCWPRP | 0.14
RRIRIRPPRLPRPRPRPATTPRP | -0.145
RRIRHRPPRLPRPRPRPVHCPRP | -0.159
RRIRTRPPRLPRPRPRPDKWPRP | 0.0238
RRIRMRPPRLPRPRPRPNRNPRP | -0.292
RRIRERPPRLPRPRPRPEYDPRP | -0.00663

Sequence | shrunken log2 fold change
RRIRQRPPRLPRPRPRPHHPPRP | 0.00343
RRIRGRPPRLPRPRPRPMTCPRP | 0.133
RRIRGRPPRLPRPRPRPPLKPRP | 1.03
RRIRKRPPRLPRPRPRPYPKPRP | 0.109
RRIRPRPPRLPRPRPRPLNTPRP | -0.482
RRIRQRPPRLPRPRPRPGFSPRP | 0.00737
RRIRVRPPRLPRPRPRPKFDPRP | 0.21
RRIRHRPPRLPRPRPRPPKRPRP | -0.142
RRIRPRPPRLPRPRPRPRKHPRP | 0.0952
RRIRRRPPRLPRPRPRPVSAPRP | 0.588
RRIRVRPPRLPRPRPRPRHTPRP | 0.226
RRIRERPPRLPRPRPRPRIVPRP | -0.0184
RRIRWRPPRLPRPRPRPMADPRP | 0.0452
RRIRQRPPRLPRPRPRPPIPPRP | -0.0174
RRIRRRPPRLPRPRPRPMYRPRP | 0.0278
RRIRKRPPRLPRPRPRPLVFPRP | -0.0076
RRIRSRPPRLPRPRPRPEQVPRP | 0.243
RRIRDRPPRLPRPRPRPAAQPRP | 1.65
RRIRWRPPRLPRPRPRPVTDPRP | 0.105
RRIRNRPPRLPRPRPRPTSLPRP | -0.0597
RRIRNRPPRLPRPRPRPFVWPRP | -0.0187
RRIRDRPPRLPRPRPRPRRLPRP | 0.472
RRIRHRPPRLPRPRPRPWPCPRP | -0.027

Sequence | shrunken log2 fold change
RRIRFRPPRLPRPRPRPKIWPRP | 0.106
RRIRARPPRLPRPRPRPDQVPRP | 0.359
RRIRDRPPRLPRPRPRPICEPRP | 0.229
RRIRARPPRLPRPRPRPTGIPRP | 0.0125
RRIRERPPRLPRPRPRPDSLPRP | -0.391
RRIRHRPPRLPRPRPRPMAVPRP | 0.159
RRIRSRPPRLPRPRPRPDAKPRP | 0.0687
RRIRPRPPRLPRPRPRPMPKPRP | 0.409
RRIRSRPPRLPRPRPRPPNWPRP | 0.504
RRIRHRPPRLPRPRPRPVYFPRP | -0.508
RRIRRRPPRLPRPRPRPRESPRP | 0.59
RRIRRRPPRLPRPRPRPMEIPRP | -0.0055
RRIRNRPPRLPRPRPRPMAIPRP | -0.00192
RRIRCRPPRLPRPRPRPVWEPRP | 0.176
RRIRWRPPRLPRPRPRPHYCPRP | -0.269
RRIRTRPPRLPRPRPRPSDVPRP | -0.83
RRIRYRPPRLPRPRPRPDDQPRP | -0.0136
RRIRVRPPRLPRPRPRPEEGPRP | -0.01
RRIRVRPPRLPRPRPRPLYLPRP | -0.507
RRIRKRPPRLPRPRPRPIIKPRP | 0.232
RRIRLRPPRLPRPRPRPIIAPRP | -0.0536
RRIRQRPPRLPRPRPRPLVTPRP | -0.122
RRIRIRPPRLPRPRPRPKPTPRP | 0.448

Sequence | shrunken log2 fold change
RRIRYRPPRLPRPRPRPYQHPRP | -1.87
RRIRSRPPRLPRPRPRPVRQPRP | 0.19
RRIRYRPPRLPRPRPRPACRPRP | -0.077
RRIRPRPPRLPRPRPRPEDLPRP | 0.0558
RRIRLRPPRLPRPRPRPYWGPRP | -0.304
RRIRIRPPRLPRPRPRPCDNPRP | -0.178
RRIRDRPPRLPRPRPRPIASPRP | 0.194
RRIRTRPPRLPRPRPRPAGCPRP | 0.316
RRIRDRPPRLPRPRPRPTRSPRP | 0.877
RRIRARPPRLPRPRPRPHMIPRP | 0.028
RRIRYRPPRLPRPRPRPPCMPRP | -0.315
RRIRCRPPRLPRPRPRPPVFPRP | 0.0601
RRIRDRPPRLPRPRPRPRLKPRP | 0.411
RRIRWRPPRLPRPRPRPRQTPRP | 0.0702
RRIRIRPPRLPRPRPRPCCIPRP | -2.25
RRIRFRPPRLPRPRPRPLIEPRP | -0.132
RRIRLRPPRLPRPRPRPWHGPRP | -0.109
RRIRLRPPRLPRPRPRPKKYPRP | -0.143
RRIRPRPPRLPRPRPRPRILPRP | 0.0605
RRIRRRPPRLPRPRPRPPNVPRP | 0.115
RRIRHRPPRLPRPRPRPACTPRP | 0.0224
RRIRFRPPRLPRPRPRPVRAPRP | 0.495
